# Laboratory results as given in patent US20180155451A1 (published 2018).
# Biological target: T1, FcγRIIIa extracellular domain with C-terminal His tag (human, UniProt P08637 17-208)
# T1 construct: extracellular domain; also called FcgRIIIa; 3a; not shown: His tag at the C terminus
# Experiment: SPR relative binding; GpH7-A5/GpH7-B3/GpL16-k0 = 100
# Method: Analysis of interaction between objective antibody and the FcγR was carried out using Biacore T100 (GE Healthcare). HBS-EP+ (GE Healthcare) was used as the running buffer, and the measurement temperature was set to 25° C. Chips produced by immobilizing the antigen peptide by the amine coupling method to a Series S Sencor Chip CM5 (GE Healthcare), or alternatively, chips produced by allowing preliminarily biotinylated antigen peptides to interact with and immobilize onto a Series S Sensor Chip SA (certified) (GE Healthcare) were used. Antibodies of interest were captured onto an antigen peptide-immobilized chip, and allowed to interact to each FcγR diluted with running buffer. To regenerate and repeatedly use the chip, the antibodies captured on the chip were washed off by reacting 10 mM glycine-HCl, pH 1.5.
# The FcγR-binding activity of each antibody was assessed primarily using as an indicator the FcγR-binding activity and dissociation constant for FcγR.
# T1 sequence (P08637 17-208): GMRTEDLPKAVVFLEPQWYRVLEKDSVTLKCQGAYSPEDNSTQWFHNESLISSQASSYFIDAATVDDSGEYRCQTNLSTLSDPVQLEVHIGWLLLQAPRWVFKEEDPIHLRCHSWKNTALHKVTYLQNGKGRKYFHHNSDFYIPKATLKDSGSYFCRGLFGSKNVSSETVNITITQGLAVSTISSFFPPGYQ
row,Binder,He/Con_3a
1,"GpH7-A5/GpH7-B3 variant A330_05P/GpL16-k0 (antibody, human IgG1, kappa, also called He Ab A330_05P) heavy 1: not shown heavy 2: not shown light: DIVMTQSPLSLPVTPGEPASISCQASESLVHSNRNTYLHWYLQKPGQSPQLLIYKVSNRFSGVPDRFSGSGSGTDFTLKISRVEAEDVGVYYCSQNTHVPPTFGQGTKVEIERTVAAPSVFIFPPSDEQLKSGTASVVCLLNNFYPREAKVQWKVDNALQSGNSQESVTEQDSKDSTYSLSSTLTLSKADYEKHKVYACEVTHQGLSSPVTKSFNRGEC",155 % of control
2,"GpH7-A5/GpH7-B3 variant A330_07I/GpL16-k0 (antibody, human IgG1, kappa, also called He Ab A330_07I) heavy 1: not shown heavy 2: not shown light: DIVMTQSPLSLPVTPGEPASISCQASESLVHSNRNTYLHWYLQKPGQSPQLLIYKVSNRFSGVPDRFSGSGSGTDFTLKISRVEAEDVGVYYCSQNTHVPPTFGQGTKVEIERTVAAPSVFIFPPSDEQLKSGTASVVCLLNNFYPREAKVQWKVDNALQSGNSQESVTEQDSKDSTYSLSSTLTLSKADYEKHKVYACEVTHQGLSSPVTKSFNRGEC",103 % of control
3,"GpH7-A5/GpH7-B3 variant E333_02A/GpL16-k0 (antibody, human IgG1, kappa, also called He Ab E333_02A) heavy 1: not shown heavy 2: not shown light: DIVMTQSPLSLPVTPGEPASISCQASESLVHSNRNTYLHWYLQKPGQSPQLLIYKVSNRFSGVPDRFSGSGSGTDFTLKISRVEAEDVGVYYCSQNTHVPPTFGQGTKVEIERTVAAPSVFIFPPSDEQLKSGTASVVCLLNNFYPREAKVQWKVDNALQSGNSQESVTEQDSKDSTYSLSSTLTLSKADYEKHKVYACEVTHQGLSSPVTKSFNRGEC",105 % of control
4,"GpH7-A5/GpH7-B3 variant E333_03V/GpL16-k0 (antibody, human IgG1, kappa, also called He Ab E333_03V) heavy 1: not shown heavy 2: not shown light: DIVMTQSPLSLPVTPGEPASISCQASESLVHSNRNTYLHWYLQKPGQSPQLLIYKVSNRFSGVPDRFSGSGSGTDFTLKISRVEAEDVGVYYCSQNTHVPPTFGQGTKVEIERTVAAPSVFIFPPSDEQLKSGTASVVCLLNNFYPREAKVQWKVDNALQSGNSQESVTEQDSKDSTYSLSSTLTLSKADYEKHKVYACEVTHQGLSSPVTKSFNRGEC",103 % of control
5,"GpH7-A5/GpH7-B3 variant E333_04F/GpL16-k0 (antibody, human IgG1, kappa, also called He Ab E333_04F) heavy 1: not shown heavy 2: not shown light: DIVMTQSPLSLPVTPGEPASISCQASESLVHSNRNTYLHWYLQKPGQSPQLLIYKVSNRFSGVPDRFSGSGSGTDFTLKISRVEAEDVGVYYCSQNTHVPPTFGQGTKVEIERTVAAPSVFIFPPSDEQLKSGTASVVCLLNNFYPREAKVQWKVDNALQSGNSQESVTEQDSKDSTYSLSSTLTLSKADYEKHKVYACEVTHQGLSSPVTKSFNRGEC",101 % of control
6,"GpH7-A5/GpH7-B3 variant E333_09D/GpL16-k0 (antibody, human IgG1, kappa, also called He Ab E333_09D) heavy 1: not shown heavy 2: not shown light: DIVMTQSPLSLPVTPGEPASISCQASESLVHSNRNTYLHWYLQKPGQSPQLLIYKVSNRFSGVPDRFSGSGSGTDFTLKISRVEAEDVGVYYCSQNTHVPPTFGQGTKVEIERTVAAPSVFIFPPSDEQLKSGTASVVCLLNNFYPREAKVQWKVDNALQSGNSQESVTEQDSKDSTYSLSSTLTLSKADYEKHKVYACEVTHQGLSSPVTKSFNRGEC",112 % of control
7,"GpH7-A5/GpH7-B3 variant E333_13S/GpL16-k0 (antibody, human IgG1, kappa, also called He Ab E333_13S) heavy 1: not shown heavy 2: not shown light: DIVMTQSPLSLPVTPGEPASISCQASESLVHSNRNTYLHWYLQKPGQSPQLLIYKVSNRFSGVPDRFSGSGSGTDFTLKISRVEAEDVGVYYCSQNTHVPPTFGQGTKVEIERTVAAPSVFIFPPSDEQLKSGTASVVCLLNNFYPREAKVQWKVDNALQSGNSQESVTEQDSKDSTYSLSSTLTLSKADYEKHKVYACEVTHQGLSSPVTKSFNRGEC",103 % of control
8,"GpH7-A5/GpH7-B3 variant E333_20W/GpL16-k0 (antibody, human IgG1, kappa, also called He Ab E333_20W) heavy 1: not shown heavy 2: not shown light: DIVMTQSPLSLPVTPGEPASISCQASESLVHSNRNTYLHWYLQKPGQSPQLLIYKVSNRFSGVPDRFSGSGSGTDFTLKISRVEAEDVGVYYCSQNTHVPPTFGQGTKVEIERTVAAPSVFIFPPSDEQLKSGTASVVCLLNNFYPREAKVQWKVDNALQSGNSQESVTEQDSKDSTYSLSSTLTLSKADYEKHKVYACEVTHQGLSSPVTKSFNRGEC",101 % of control
9,"GpH7-A5/GpH7-B3 variant G236_15Y/GpL16-k0 (antibody, human IgG1, kappa, also called He Ab G236_15Y) heavy 1: not shown heavy 2: not shown light: DIVMTQSPLSLPVTPGEPASISCQASESLVHSNRNTYLHWYLQKPGQSPQLLIYKVSNRFSGVPDRFSGSGSGTDFTLKISRVEAEDVGVYYCSQNTHVPPTFGQGTKVEIERTVAAPSVFIFPPSDEQLKSGTASVVCLLNNFYPREAKVQWKVDNALQSGNSQESVTEQDSKDSTYSLSSTLTLSKADYEKHKVYACEVTHQGLSSPVTKSFNRGEC",121 % of control
10,"GpH7-A5/GpH7-B3 variant H268_02A/GpL16-k0 (antibody, human IgG1, kappa, also called He Ab H268_02A) heavy 1: not shown heavy 2: not shown light: DIVMTQSPLSLPVTPGEPASISCQASESLVHSNRNTYLHWYLQKPGQSPQLLIYKVSNRFSGVPDRFSGSGSGTDFTLKISRVEAEDVGVYYCSQNTHVPPTFGQGTKVEIERTVAAPSVFIFPPSDEQLKSGTASVVCLLNNFYPREAKVQWKVDNALQSGNSQESVTEQDSKDSTYSLSSTLTLSKADYEKHKVYACEVTHQGLSSPVTKSFNRGEC",122 % of control
